Assays:
[1] = biological target: the molecule itself; test: cryo-EM structure; wild-type LONP1 2.5 mg/ml in 50 mM Tris pH 8, 75 mM KCl, 10 mM MgCl2, 1 mM TCEP, 1 mM ATPγS; substrate-free (~3.4 Å) and substrate-bound (~3.2 Å) conformations from one sample; LONP1 with itself
[2] = biological target: the molecule itself; test: cryo-EM structure; LONP1 2.5 mg/ml in 50 mM Tris pH 8, 75 mM KCl, 10 mM MgCl2, 1 mM TCEP, 1 mM ATPγS with 10-fold molar excess bortezomib; ~3.2 Å; LONP1 with itself
[3] = biological target: the molecule itself; test: cryo-EM structure; Walker B (E591A) LONP1 2.5 mg/ml in 50 mM Tris pH 8, 75 mM KCl, 10 mM MgCl2, 1 mM TCEP, 1 mM ATP; ~4.8 Å; LONP1 with itself

B1: human LONP1 (mature, lacking its N-terminal mitochondrial targeting sequence), wild type (enzyme, UniProt P36776 115-959, looked up)
chain: MTIPDVFPHLPLIAITRNPVFPRFIKIIEVKNKKLVELLRRKVRLAQPYVGVFLKRDDSNESDVVESLDEIYHTGTFAQIHEMQDLGDKLRMIVMGHRRVHISRQLEVEPEEPEAENKHKPRRKSKRGKKEAEDELSARHPAELAMEPTPELPAEVLMVEVENVVHEDFQVTEEVKALTAEIVKTIRDIIALNPLYRESVLQMMQAGQRVVDNPIYLSDMGAALTGAESHELQDVLEETNIPKRLYKALSLLKKEFELSKLQQRLGREVEEKIKQTHRKYLLQEQLKIIKKELGLEKDDKDAIEEKFRERLKELVVPKHVMDVVDEELSKLGLLDNHSSEFNVTRNYLDWLTSIPWGKYSNENLDLARAQAVLEEDHYGMEDVKKRILEFIAVSQLRGSTQGKILCFYGPPGVGKTSIARSIARALNREYFRFSVGGMTDVAEIKGHRRTYVGAMPGKIIQCLKKTKTENPLILIDEVDKIGRGYQGDPSSALLELLDPEQNANFLDHYLDVPVDLSKVLFICTANVTDTIPEPLRDRMEMINVSGYVAQEKLAIAERYLVPQARALCGLDESKAKLSSDVLTLLIKQYCRESGVRNLQKQVEKVLRKSAYKIVSGEAESVEVTPENLQDFVGKPVFTVERMYDVTPPGVVMGLAWTAMGGSTLFVETSLRRPQDKDAKGDKDGSLEVTGQLGEVMKESARIAYTFARAFLMQHAPANDYLVTSHIHLHVPEGATPKDGPSAGCTIVTALLSLAMGRPVRQNLAMTGEVSLTGKILPVGGIKEKTIAAKRAGVTCIVLPAENKKDFYDLAAFITEGLEVHFVEHYREIFDIAFPDEQAEALAVER
notes: human LONP1, mature mitochondrial-matrix form with methionine 115 as its first residue; residues ~420-947 resolved in the cryo-EM maps; pET20b-His6-LONP1; no removal of the His6 tag is described; Incubated with ATPγS for cryo-EM; also called His6-LONP1; WT LONP1; source: E. coli Rosetta 2(DE3)pLysS, purified (TALON cobalt resin, Superose 6 size exclusion)
stoichiometry N [1]: 6

B2: LONP1^Bz: human LONP1 with bortezomib covalently attached to the catalytic serine (enzyme, UniProt P36776 115-959, looked up)
chain: MTIPDVFPHLPLIAITRNPVFPRFIKIIEVKNKKLVELLRRKVRLAQPYVGVFLKRDDSNESDVVESLDEIYHTGTFAQIHEMQDLGDKLRMIVMGHRRVHISRQLEVEPEEPEAENKHKPRRKSKRGKKEAEDELSARHPAELAMEPTPELPAEVLMVEVENVVHEDFQVTEEVKALTAEIVKTIRDIIALNPLYRESVLQMMQAGQRVVDNPIYLSDMGAALTGAESHELQDVLEETNIPKRLYKALSLLKKEFELSKLQQRLGREVEEKIKQTHRKYLLQEQLKIIKKELGLEKDDKDAIEEKFRERLKELVVPKHVMDVVDEELSKLGLLDNHSSEFNVTRNYLDWLTSIPWGKYSNENLDLARAQAVLEEDHYGMEDVKKRILEFIAVSQLRGSTQGKILCFYGPPGVGKTSIARSIARALNREYFRFSVGGMTDVAEIKGHRRTYVGAMPGKIIQCLKKTKTENPLILIDEVDKIGRGYQGDPSSALLELLDPEQNANFLDHYLDVPVDLSKVLFICTANVTDTIPEPLRDRMEMINVSGYVAQEKLAIAERYLVPQARALCGLDESKAKLSSDVLTLLIKQYCRESGVRNLQKQVEKVLRKSAYKIVSGEAESVEVTPENLQDFVGKPVFTVERMYDVTPPGVVMGLAWTAMGGSTLFVETSLRRPQDKDAKGDKDGSLEVTGQLGEVMKESARIAYTFARAFLMQHAPANDYLVTSHIHLHVPEGATPKDGPSAGCTIVTALLSLAMGRPVRQNLAMTGEVSLTGKILPVGGIKEKTIAAKRAGVTCIVLPAENKKDFYDLAAFITEGLEVHFVEHYREIFDIAFPDEQAEALAVER
modifications: bortezomib covalently attached to S855
notes: human LONP1, mature form with methionine 115 as its first residue; with ATPγS
stoichiometry N [2]: 6

B3: Walker B LONP1 mutant (E591A) (enzyme, human, UniProt P36776 115-959, looked up)
chain: MTIPDVFPHLPLIAITRNPVFPRFIKIIEVKNKKLVELLRRKVRLAQPYVGVFLKRDDSNESDVVESLDEIYHTGTFAQIHEMQDLGDKLRMIVMGHRRVHISRQLEVEPEEPEAENKHKPRRKSKRGKKEAEDELSARHPAELAMEPTPELPAEVLMVEVENVVHEDFQVTEEVKALTAEIVKTIRDIIALNPLYRESVLQMMQAGQRVVDNPIYLSDMGAALTGAESHELQDVLEETNIPKRLYKALSLLKKEFELSKLQQRLGREVEEKIKQTHRKYLLQEQLKIIKKELGLEKDDKDAIEEKFRERLKELVVPKHVMDVVDEELSKLGLLDNHSSEFNVTRNYLDWLTSIPWGKYSNENLDLARAQAVLEEDHYGMEDVKKRILEFIAVSQLRGSTQGKILCFYGPPGVGKTSIARSIARALNREYFRFSVGGMTDVAEIKGHRRTYVGAMPGKIIQCLKKTKTENPLILIDAVDKIGRGYQGDPSSALLELLDPEQNANFLDHYLDVPVDLSKVLFICTANVTDTIPEPLRDRMEMINVSGYVAQEKLAIAERYLVPQARALCGLDESKAKLSSDVLTLLIKQYCRESGVRNLQKQVEKVLRKSAYKIVSGEAESVEVTPENLQDFVGKPVFTVERMYDVTPPGVVMGLAWTAMGGSTLFVETSLRRPQDKDAKGDKDGSLEVTGQLGEVMKESARIAYTFARAFLMQHAPANDYLVTSHIHLHVPEGATPKDGPSAGCTIVTALLSLAMGRPVRQNLAMTGEVSLTGKILPVGGIKEKTIAAKRAGVTCIVLPAENKKDFYDLAAFITEGLEVHFVEHYREIFDIAFPDEQAEALAVER
notes: human LONP1, mature form with methionine 115 as its first residue, with the Walker B mutation E591 to A591; Made by QuikChange from pET20b-His6-LONP1, expressed and purified as the wild type; Structure determined with ATP; also called WalkerB mutant LONP1; source: E. coli Rosetta 2(DE3)pLysS, purified (TALON cobalt resin, Superose 6 size exclusion)
binding result [3]: binds

Reference: publication PMC8163871, “Structures of the human LONP1 protease reveal regulatory steps involved in protease activation” (Nature Communications, 2021)
